Consider three molecules from patent publication US8703915B2, “Mutant proteins and methods for producing them” (Heptares Therapeutics Limited, priority 2009, dated 2014).

For one series, the system named is OX2 receptor. The experiment in a line: Thermostability of OX2 receptor bound to antagonist EMPA. As to conditions: bound to antagonist EMPA. It is filed as physicochemical, human. As for the experimental part:
(§1) Transiently transfected mammalian cells expressing M4 were harvested about 40 hours post transfection and the receptors were solubilised in 50 mM Tris pH 7.5/250 mM NaCl/1% DDM/EDTA free protease inhibitor mix for 1 hour rotating at 4° C. The solubilised lysate was then cleared by centrifugation at 13000 rpm for 15 minutes at 4° C. The solubilised receptors were then purified on Ni-NTA beads and eluted with 100 mM histidine. The eluted receptor was used in radioligand binding assay. Thermostability of M4 was measured using 25 μL of purified receptor mixed with 95 μL of 12 nM [^3H]-NMS (final concentration of 10 nM). The sample was incubated for 60 min at 4° C., then 30 min at the specified temperature and then 30 min at 4° C. Receptor bound and free radioligand were separated using a 96-well plate gel filtration assay.
A tandem alanine and leucine scanning mutagenesis strategy was used to identify mutations that enhanced the thermostability of OX2 bound to the small-molecule antagonist EMPA.
Thermostability assays were preformed on partially purified receptors as described for M4, with the following amendments. Cell lysates were solubilised in 50 mM Tris pH7.4, 150 mM NaCl, 1% DDM supplemented with 1× complete EDTA free protease inhibitor cocktail (Roche). Radioligand binding reactions were set up using 1/10 volume eluted receptor mixed with 20 nM ^3H-EMPA (final concentration) per temperature point.

The subject of series [1] is A2A receptor. The experiment in a line: Thermostability of A2A receptor in NECA agonist-bound state, solubilised in DDM. It is filed as physicochemical, human. As for the experimental part:
(§2) In order to stabilise an agonist-bound conformation, a systematic Alanine-scan was performed in order to identify mutations that may stabilise the A2A receptor bound to its full agonist NECA. In this A2A agonist-bound study, L2.46 (L48A) is the most stabilising single mutant. When NECA is bound to the solubilised receptor, removing the L48 side chain (in A2A-L48A) dramatically increases the thermostability of the ligand-receptor complex resulting in an increase of 14° C. over the wild type receptor in the detergent DDM (FIG. 5a). […] We evaluated the signalling property of the A2A receptor by over-expressing the receptor in CHO cells. A2A agonist stimulation triggers the signal transduction through the Gs-trimeric complex and increases the intracellular cAMP level. The increase in intracellular cAMP can be detected by and quantified by using an anti-cAMP Mab antibody competition assay. […] However the signalling efficacy is reduced to 30% (FIG. 6).
(§3) A2AR-(2-316) expression was carried out by using the pRG/III-hs-MBP E. coli expression vector and DH5α cells. Cells were grown at 37° C. in 2 L flasks containing 500 mL of 2×TY medium supplemented with Ampicillin (100 μg/mL) and glucose (0.2% w/v). At OD600≈0.7, IPTG and theophylline were added at final concentrations respectively of 0.5 mM and 100 μM, and the temperature was reduced to 20° C. After 22 to 24 hours, cells were harvested in aliquots of 14 mL, centrifuged for 30 min and stored at −20° C. Both 5HT2C and M4 receptors were transiently expressed in HEK293T cells using GeneJuice transfection reagent used according to the manufacturers guidelines.
An aliquot of E. coli cells expressing wild type or mutant A2AR-(2-316) (14 mL) was thawed on ice and cells were resuspended in 500 μL of buffer A (50 mM Tris HCl mM/pH 7.4; 0.4 M NaCl, 250 μg/mL lysozyme (Sigma), 1 mg/mL DNAse I (Sigma), supplemented with complete EDTA-free Protease inhibitor cocktail (Roche)) and incubated 1 hour at 4° C. Samples were then sonicated 1 min at 4° C. using a cup-horn sonicator. […]

Series [2] concerns A2A receptor. Put plainly: Thermostability of A2A receptor in ZM241385 antagonist-bound state, solubilised in DDM. It is filed as physicochemical, human. The note with it: ZM antagonist. As for the experimental part:
as §2
A2AR-(2-316) expression was carried out by using the pRG/III-hs-MBP E. coli expression vector and DH5α cells. Cells were grown at 37° C. in 2 L flasks containing 500 mL of 2×TY medium supplemented with Ampicillin (100 μg/mL) and glucose (0.2% w/v). At OD600≈0.7, IPTG and theophylline were added at final concentrations respectively of 0.5 mM and 100 μM, and the temperature was reduced to 20° C. […]

The target in series [3] is T1, A2A receptor (Homo sapiens, UniProt P29274, L48A).
T1 construct: transfected with 100 ng of pcDNA-3-A2A(2-316) pre-incubated with 0.3 μL of GeneJuice; expressed in transfected cells; host or cells: CHO cells, transient
Put plainly: cAMP functional assay (HTRF), NECA stimulation of CHO cells over-expressing A2A receptor. It is filed as cell-based. As to conditions: cAMP, relative to A2A-WT. The procedure: as §2
(§4) This assay takes advantage of Homogeneous Time-Resolved Fluorescence (HTRF) using cAMP labeled with the dye d2 in presence of an anti-cAMP Mab labeled with Cryptate. The method is based on a competitive immunoassay between cAMP produced by cells and the cAMP labeled with the dye d2. CHO cells were grown using Glutamax Ham's F12, 10% FBS in 96-well plates, clear bottom and Black wall (Costar). Cells were seeded at a density of 12500 cells per well, grown overnight, washed with PBS and then transfected with 100 ng of pcDNA-3-A2A(2-316) pre-incubated with 0.3 μL of GeneJuice (Novagen) per well. After 48 hours of receptor expression, the medium was removed, the cells were washed in PBS then stimulated by using different NECA concentrations, in the presence of Rolipram (50 μM) and Adenosine deaminase in a total volume of 50 μL for 30 minutes. Dilution was realised in Hamf's F12/cAMP-d2 conjugate according to the manufacturer protocol, without serum. […] The plate was incubated at room temperature for 1 hour and then read using the Pherastar 96-well time-resolved fluorescence plate reader (Ex 340 nm; Em 665/620 nm).

Series [4] deals with A2A receptor. The description is as above. It counts as cell-based, human. As to conditions: intracellular cAMP, CHO cells. The procedure:
as §2, §4

For a further series, the target named is T2, M4 muscarinic receptor (Homo sapiens, UniProt P08173, L74A).
T2 construct: made in house; host or cells: HEK293T cells, transient
T2 sequence (P08173 1-479 L74A): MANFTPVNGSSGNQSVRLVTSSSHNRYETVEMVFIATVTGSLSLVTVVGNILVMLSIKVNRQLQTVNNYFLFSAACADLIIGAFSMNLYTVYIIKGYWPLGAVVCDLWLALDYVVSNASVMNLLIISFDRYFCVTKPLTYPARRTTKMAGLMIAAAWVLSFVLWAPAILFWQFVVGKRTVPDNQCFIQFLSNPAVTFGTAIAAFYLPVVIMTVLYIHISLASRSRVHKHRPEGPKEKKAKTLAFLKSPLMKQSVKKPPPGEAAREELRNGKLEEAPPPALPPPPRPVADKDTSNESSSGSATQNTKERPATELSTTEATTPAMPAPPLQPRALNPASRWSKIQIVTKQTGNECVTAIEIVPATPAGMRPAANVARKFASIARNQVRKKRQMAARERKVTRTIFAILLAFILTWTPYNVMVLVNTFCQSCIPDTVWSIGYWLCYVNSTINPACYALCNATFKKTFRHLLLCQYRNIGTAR
The experiment in a line: Thermostability of M4 muscarinic receptor bound to antagonist NMS. It is filed as physicochemical. The note with it: antagonist NMS bound, data not shown. As for the experimental part: In order to stabilise the M4 muscarinic receptors in antagonist conformation, a systematic alanine-scan was performed to identify mutations that stabilise receptors bound to the muscarinic antagonist, NMS. […] However, L71A (three residues N-terminal of the L2.46) was identified as a stabilising mutation. This mutation increases the Tm of this receptor by about 2° C. (FIG. 8a).
as §3, §1

“Also recorded” adds a separate entry of the source.

B1: OX2WT: wild type human orexin 2 receptor (protein, UniProt O43614 1-444, looked up)
Orexin receptor type 2: MSGTKLEDSPPCRNWSSASELNETQEPFLNPTDYDDEEFLRYLWREYLHPKEYEWVLIAGYIIVFVVALIGNVLVCVAVWKNHHMRTVTNYFIVNLSLADVLVTITCLPATLVVDITETWFFGQSLCKVIPYLQTVSVSVSVLTLSCIALDRWYAICHPLMFKSTAKRARNSIVIIWIVSCIIMIPQAIVMECSTVFPGLANKTTLFTVCDERWGGEIYPKMYHICFFLVTYMAPLCLMVLAYLQIFRKLWCRQIPGTSSVVQRKWKPLQPVSQPRGPGQPTKSRMSAVAAEIKQIRARRKTARMLMIVLLVFAICYLPISILNVLKRVFGMFAHTEDRETVYAWFTFSHWLVYANSAANPIIYNFLSGKFREEFKAAFSCCCLGVHHRQEDRLTRGRTSTESRKSLTTQISNFDNISKLSEQVVLTSISTLPAANGAGPLQNW
On to B1, for which the Tm with OX2 receptor stood at 28.47 °C.

B2: A2A-L48A: human adenosine A2A receptor mutant, Leu 48 (L2.46) replaced by alanine (protein, UniProt P29274 1-412, looked up, variant L48A)
Adenosine receptor A2a: MPIMGSSVYITVELAIAVLAILGNVLVCWAVWLNSNLQNVTNYFVVSAAAADIAVGVLAIPFAITISTGFCAACHGCLFIACFVLVLTQSSIFSLLAIAIDRYIAIRIPLRYNGLVTGTRAKGIIAICWVLSFAIGLTPMLGWNNCGQPKEGKNHSQGCGEGQVACLFEDVVPMNYMVYFNFFACVLVPLLLMLGVYLRIFLAARRQLKQMESQPLPGERARSTLQKEVHAAKSLAIIVGLFALCWLPLHIINCFTFFCPDCSHAPLWLMYLAIVLSHTNSVVNPFIYAYRIREFRQTFRKIIRSHVLRQQEPFKAAGTSARVLAAHGSDGEQVSLRLNGHPPGVWANGSAPHPERRPNGYALGLVSGGSAQESQGNTGLPDVELLSHELKGVCPEPPGLDDPLAQDGAGVS
As a reminder, the pEC50 is the EC50 on a negative log10 scale, so that one unit is a factor of ten. Lower therefore signals a high EC50. Take B2: the Tm in the series on A2A receptor [1] (NECA agonist-bound state (400 nM), solubilised in DDM) is 42.5±1.0 °C. For the same molecule, the “increase in thermostability over the wild type receptor” value in the series with A2A receptor [1] (NECA bound, detergent DDM) came to 14 °C. The antagonist binding result in the series with A2A receptor [2] is “abolishes the binding of the antagonist; also recorded: no binding detected”. Besides, the signalling efficacy in the series with A2A receptor [3] stood at 30%. Moreover, the pEC50 in the series on A2A receptor [4] is recorded as 8.10±0.39.

B3: M4 L2.46: M4 muscarinic receptor with L2.46 residue mutated to alanine (protein, UniProt P08173 1-479, looked up, variant L74A)
Muscarinic acetylcholine …: MANFTPVNGSSGNQSVRLVTSSSHNRYETVEMVFIATVTGSLSLVTVVGNILVMLSIKVNRQLQTVNNYFLFSAACADLIIGAFSMNLYTVYIIKGYWPLGAVVCDLWLALDYVVSNASVMNLLIISFDRYFCVTKPLTYPARRTTKMAGLMIAAAWVLSFVLWAPAILFWQFVVGKRTVPDNQCFIQFLSNPAVTFGTAIAAFYLPVVIMTVLYIHISLASRSRVHKHRPEGPKEKKAKTLAFLKSPLMKQSVKKPPPGEAAREELRNGKLEEAPPPALPPPPRPVADKDTSNESSSGSATQNTKERPATELSTTEATTPAMPAPPLQPRALNPASRWSKIQIVTKQTGNECVTAIEIVPATPAGMRPAANVARKFASIARNQVRKKRQMAARERKVTRTIFAILLAFILTWTPYNVMVLVNTFCQSCIPDTVWSIGYWLCYVNSTINPACYALCNATFKKTFRHLLLCQYRNIGTAR
As to B3, the “effect on thermal stability” value with M4 muscarinic receptor is “does not change the thermal stability of this receptor significantly”.
